According to paper PMC10877974:

Columns and labels:
[1] = molecular target: Ad35K++ (recombinant adenovirus serotype 35 fiber knob protein with affinity-enhancing mutations) (adenovirus serotype 35); experiment: SEC; Superdex 200 Increase 10/300 GL, 1x Tris-buffered saline, 1 mL/min; cGMP grade Ad35K++
[2] = molecular target: Ad35K++ (recombinant adenovirus serotype 35 fiber knob protein with affinity-enhancing mutations) (adenovirus serotype 35); experiment: SDS-PAGE of unboiled sample; reduced 4-15% gradient gel, Laemmli sample buffer with beta-mercaptoethanol, sample not boiled, Coomassie Blue

Substance: Ad35K++ (recombinant adenovirus serotype 35 fiber knob protein with affinity-enhancing mutations) (domain or fragment)
- stoichiometry N [1]: 3
- stoichiometry N [2]: 3
